Reference: patent US12421510B2, “Peptide, a complex and a method for treating cancer” (TECHNION RESEARCH & DEVELOPMENT FOUNDATION LIMITED, priority 2018, dated 2025)

T1: p105 (Homo sapiens, UniProt P19838)
T1 sequence (P19838 1-968): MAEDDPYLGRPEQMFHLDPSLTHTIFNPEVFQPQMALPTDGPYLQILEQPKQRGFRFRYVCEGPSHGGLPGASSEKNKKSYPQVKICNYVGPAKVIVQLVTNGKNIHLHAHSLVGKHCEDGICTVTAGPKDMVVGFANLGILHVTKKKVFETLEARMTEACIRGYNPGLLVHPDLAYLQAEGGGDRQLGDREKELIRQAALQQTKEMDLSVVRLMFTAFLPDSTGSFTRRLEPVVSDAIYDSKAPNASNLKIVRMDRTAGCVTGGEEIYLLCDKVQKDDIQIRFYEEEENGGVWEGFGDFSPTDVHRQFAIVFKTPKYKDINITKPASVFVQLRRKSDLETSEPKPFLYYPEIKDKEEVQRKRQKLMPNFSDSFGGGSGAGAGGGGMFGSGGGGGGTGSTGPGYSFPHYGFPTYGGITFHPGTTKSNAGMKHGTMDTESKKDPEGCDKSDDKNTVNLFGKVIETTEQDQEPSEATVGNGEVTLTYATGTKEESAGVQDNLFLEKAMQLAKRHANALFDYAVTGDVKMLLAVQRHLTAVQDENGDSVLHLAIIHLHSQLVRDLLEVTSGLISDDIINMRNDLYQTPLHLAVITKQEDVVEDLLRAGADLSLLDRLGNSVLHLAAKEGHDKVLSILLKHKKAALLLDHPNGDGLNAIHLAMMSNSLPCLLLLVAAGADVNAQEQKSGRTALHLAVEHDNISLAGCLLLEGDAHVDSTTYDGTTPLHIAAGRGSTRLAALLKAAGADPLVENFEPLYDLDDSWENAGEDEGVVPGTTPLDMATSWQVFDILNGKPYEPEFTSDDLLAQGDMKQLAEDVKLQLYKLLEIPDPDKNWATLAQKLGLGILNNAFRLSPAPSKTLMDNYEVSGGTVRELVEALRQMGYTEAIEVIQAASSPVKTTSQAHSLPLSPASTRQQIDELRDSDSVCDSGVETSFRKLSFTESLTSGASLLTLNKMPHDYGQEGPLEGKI


Biological target: T1, p105
Test: Co-immunoprecipitation (Co-IP) of KPC1 species with p105-HA from transfected HEK293T cells
Assay type: binding
Set-up: HA; expressed in transfected cells; host or cells: HEK293T
Details: anti-FLAG immunoprecipitation, anti-NF-κB1 western blot
Excerpt: FIG. 1B is a western blot showing the following: HEK293T cells were transfected with cDNAs coding for p105-HA (lanes 1-6), along with the different KPC1 species as following: W.T KPC1 (lane 1), KPC1Δ969-1314 (lane 2), KPC1Δ1-438 & 1039-1314 (lane 3), KPC1Δ1-967 (lane 4) and KPC1Δ1-1042 (lane 5). Lane 6 was transfected with an empty vector. KPC1 species were immunoprecipitated using immobilized FLAG antibodies, resolved by SDS-page, and NF-κB1 and KPC1 proteins were visualized by anti-NF-κB1 (FIG. 1B (upper)) and anti-FLAG (FIG. 1B (bottom)) antibodies, respectively. 10% of the total cell lysate was analyzed for the expression of p105-HA.
FIG. 2B is a western blot. HEK293T cells were transfected with cDNAs coding for p105-HA (lanes 1-7), along with different KPC1 species as following: WT KPC1 (lane 1), KPC1Δ1-967 (lane 2), KPC1Δ967-1043 (lane 3), KPC1Δ1-973 (lane 4), KPC1Δ1-1017 (lane 5) and KPC1ΔCC domain (lane 6). Lane 7 represents cells that were transfected with empty vector. KPC1 species were immunoprecipitated using immobilized FLAG antibodies, resolved by SDS-page. NF-κB1 and KPC1 proteins were visualized with anti-NF-κB1 (FIG. 2B (i)) and anti-FLAG (FIG. 2B (ii)) antibodies, respectively. 10% of the total cell lysate was analyzed for the expression of p105-HA. FIGS. 3A and 3B: FIG. 3A is a schematic representation of KPC1 species used in the experiment shown in FIG. 3B that was directed to evaluating the region of KPC1 that is responsible for the interaction with p105.
FIG. 3B is a western blot. HEK293T cells were transfected with cDNAs coding for p105-HA (lanes 1-12), along with different KPC1 species as following: KPC1-FLAG (lane 1), WILVRLW-KPC1 Δ 1-1253 (SEQ ID NO: 8) (lane 2), ILVRLW-KPC1 Δ 1-1253 (SEQ ID NO: 10) (lane 3), LVRLW-KPC1 Δ 1-1253 (SEQ ID NO: 11) (lane 4), VRLW-KPC1 Δ 1-1253 (lane 5) (SEQ ID NO: 12), RLW-KPC1 Δ 1-1253 (lane 6) SEQ ID NO:13), KPC1 Δ 1-1253 (lane 7), WILVRL-KPC1 Δ 1-1253 (lane 8) (SEQ ID NO: 14), WILVR-KPC1 Δ 1-1253 (SEQ ID NO: 15) (lane 9), WILV-KPC1 Δ 1-1253 (SEQ ID NO: 16) (lane 10), WIL-KPC1 Δ 1-1253 (SEQ ID NO: 17 (lane 11). Lane 12 represents cells that were transfected with empty vector. KPC1 species were immunoprecipitated using immobilized FLAG antibodies, resolved by SDS-page. NF-κB1 and KPC1 proteins were visualized by anti-NF-κB1 (FIG. 3B, (i, ii) and anti-FLAG (FIG. 3B, (iii) antibodies, respectively. 10% of the total cell lysate was analyzed for the expression of p105-HA (FIG. 3B, (ii)).
HEK293T cells were transiently transfected with the various KPC1 species along with p105-HA using the j etPEI reagent. 48 hours after transfection, the cells were harvested and lysed with RIPA buffer [150 mM NaCl, 0.5% sodium deoxycholate, 50 mM Tris-HCl (pH 8.0), 0.1% SDS, and 1% NP-40, supplemented with freshly added protease inhibitors mixture]. KPC1 species proteins were immunoprecipitated with immobilized anti-FLAG, with subsequent washing of the beads five times with RIPA buffer. The immunoprecipitated proteins were resolved by SDS-PAGE (10%, FIGS. 1A, 1B, 2A and 2B, with a gel gradient, of 4-20%; FIGS. 3A and 3B), and blotted onto nitrocellulose (FIGS. 1A, 1B, 2A and 2B) or PVDF (FIGS. 3A and 3B) membranes. p105 and KPC1 species were visualized using anti-NF-κB1 or anti-FLAG antibodies, respectively.
Identification of the region of KPC1 that is responsible for the interaction with p105. In order to identify the region of KPC1 that is responsible for the interaction with p105, several truncated segments of the DNA sequence of the KPC1 protein were cloned. The truncated segments were inserted into the pCAGGS expression vector to analyze their interaction with p105 by co-immunoprecipitation (Co-IP) from cells. HEK 293T cells were transfected with cDNAs coding for p105-HA, along with different fragments of KPC1 (FIG. 1A). Species of KPC1 were immunoprecipitated using an immobilized anti-Flag antibody. […]

Row | Molecule | interaction with p105 (Co-IP)
1 | KPC1Δ1-1017: KPC1 species that lacks the amino acids 1-1017 (protein, UniProt Q5XPI4 1018-1314, looked up, fragment) LLQQGPDVAPSFLNSVLNQLNWAFSEFIGMIQEIQQAAERLERNFVDSRQLKVCATCFDLSVSLLRVLEMTITLVPEIFLDWTRPTSEMLLRRLAQLLNQVLNRVTAERNLFDRVVTLRLPGLESVDHYPILVAVTGILVQLLVRGPASEREQATSVLLADPCFQLRSICYLLGQPEPPAPGTALPAPDRKRFSLQSYADYISADELAQVEQMLAHLTSASAQAAAASLPTSEEDLCPICYAHPISAVFQPCGHKSCKACINQHLMNNKDCFFCKTTIVSVEDWEKGANTSTTSSAA | did not interact with p105
2 | KPC1Δ1-973: KPC1 species that lacks the amino acids 1-973 (protein, UniProt Q5XPI4 974-1314, looked up, fragment) WRGCGFGYRYTRLPHLLKTKLEDANLPSLQKPCPSTLLQQHMADLLQQGPDVAPSFLNSVLNQLNWAFSEFIGMIQEIQQAAERLERNFVDSRQLKVCATCFDLSVSLLRVLEMTITLVPEIFLDWTRPTSEMLLRRLAQLLNQVLNRVTAERNLFDRVVTLRLPGLESVDHYPILVAVTGILVQLLVRGPASEREQATSVLLADPCFQLRSICYLLGQPEPPAPGTALPAPDRKRFSLQSYADYISADELAQVEQMLAHLTSASAQAAAASLPTSEEDLCPICYAHPISAVFQPCGHKSCKACINQHLMNNKDCFFCKTTIVSVEDWEKGANTSTTSSAA | the interaction between these two proteins was abrogated
3 | KPC1Δ1-967: KPC1 species that lacks amino acids 1-967, SEQ ID NO: 5 (protein) WILVRLWRGCGFGYRYTRLPHLLKTKLEDANLPSLQKPCPSTLLQQHMADLLQQGPDVAPSFLNSVLNQLNWAFSEFIGMIQEIQQAAERLERNFVDSRQLKVCATCFDLSVSLLRVLEMTITLVPEIFLDWTRPTSEMLLRRLAQLLNQVLNRVTAERNLFDRVVTLRLPGLESVDHYPILVAVTGILVQLLVRGPASEREQATSVLLADPCFQLRSICYLLGQPEPPAPGTALPAPDRKRFSLQSYADYISADELAQVEQMLAHLTSASAQAAAASLPTSEEDLCPICYAHPISAVFQPCGHKSCKACINQHLMNNKDCFFCKTTIVSVEDWEKGANTSTTSSAA | an interaction was observed

The next lines start with the values.

Row | interaction with p105 (Co-IP) | Molecule
4 | An interaction | KPC1ΔCC: KPC1 species that lacks the amino acids 1041-1061 (coiled coil domain) (protein) MASKGAGMSFSRKSYRLTSDAEKSRVTGIVQEKLLNDYLNRIFSSSEHAPPAATSRKPLNFQNLPEHLDQLLQVDNEEEESQGQVEGRLGPSTVVLDHTGGFEGLLLVDDDLLGVIGHSNFGTIRSTTCVYKGKWLYEVLISSQGLMQIGWCTISCRFNQEEGVGDTHNSYAYDGNRVRKWNVTTTNYGKAWAAGDIVSCLIDLDDGTLSFCLNGVSLGTAFENLSRGLGMAYFPAISLSFKESVAFNFGSRPLRYPVAGYRPLQDPPSADLVRAQRLLGCFRAVLSVELDPVEGRLLDKESSKWRLRGQPTVLLTLAHIFHHFAPLLRKVYLVEAVLMSFLLGIVEKGTPTQAQSVVHQVLDLLWLFMEDYEVQDCLKQLMMSLLRLYRFSPIVPDLGLQIHYLRLTIAILRHEKSRKFLLSNVLFDVLRSVVFFYIKSPLRVEEAGLQELIPTTWWPHCSSREGKESTEMKEETAEERLRRRAYERGCQRLRKRIEVVEELQVQILKLLLDNKDDNGGEASRYIFLTKFRKFLQENASGRGNMPMLCPPEYMVCFLHRLISALRYYWDEYKASNPHASFSEEAYIPPQVFYNGKVDYFDLQRLGGLLSHLRKTLKDDLASKANIVIDPLELQSTAMDDLDEDEEPAPAMAQRPMQALAVGGPLPLPRPGWLSSPTLGRANRFLSTAAVSLMTPRRPLSTSEKVKVRTLSVEQRTREDIEGSHWNEGLLLGRPPEEPEQPLTENSLLEVLDGAVMMYNLSVHQQLGKMVGVSDDVNEYAMALRDTEDKLRRCPKRRKDILAELTKSQKVFSEKLDHLSRRLAWVHATVYSQEKMLDIYWLLRVCLRTIEHGDRTGSLFAFMPEFYLSVAINSYSALKNYFGPVHSMEELPGYEETLTRLAAILAKHFADARIVGTDIRDSLMQALASYVCYPHSLRAVERIPEEQRIAMVRNLLAPYEQRPWAQTNWILVRLWRGCGFGYRYTRLPHLLKTKLEDANLPSLQKPCPSTLLQQHMADLLQQGPDVAPSFLNSVLNQLNWAFVDSRQLKVCATCFDLSVSLLRVLEMTITLVPEIFLDWTRPTSEMLLRRLAQLLNQVLNRVTAERNLFDRVVTLRLPGLESVDHYPILVAVTGILVQLLVRGPASEREQATSVLLADPCFQLRSICYLLGQPEPPAPGTALPAPDRKRFSLQSYADYISADELAQVEQMLAHLTSASAQAAAASLPTSEEDLCPICYAHPISAVFQPCGHKSCKACINQHLMNNKDCFFCKTTIVSVEDWEKGANTSTTSSAA
5 | An interaction was observed | WILVRLW-KPC1Δ1-1253: KPC1 lacking amino acids 1-1253 with WILVRLW at its N-terminus, SEQ ID NO: 8 (protein) WILVRLWCPICYAHPISAVFQPCGHKSCKACINQHLMNNKDCFFCKTTIVSVEDWEKGANTSTTSSAA
